Source: patent publication US9752119B2, “Substantially pure human retinal progenitor, forebrain progenitor, and retinal pigment epithelium cell cultures and methods of making the same” (Wisconsin Alumni Research Foundation, priority 2009, dated 2017)

B1: Activin: Activin-A added to vesicular neurosphere cultures to influence RPE fate (protein, UniProt P08476 311-426, looked up)
Inhibin beta A chain: GLECDGKVNICCKKQFFVSFKDIGWNDWIIAPSGYHANYCEGECPSHIAGTSGSSLSFHSTVINHYRMRGHSPFANLKSCCVPTKLRPMSMLYYDDGQNIIKKDIQNMIVEECGCS
modifications: Inhibin beta A chain
B2: Wnt3A: recombinant Wnt3a, added to differentiating human ESC (protein, UniProt P56704 19-352, looked up)
Protein Wnt-3a: SYPIWWSLAVGPQYSSLGSQPILCASIPGLVPKQLRFCRNYVEIMPSVAEGIKIGIQECQHQFRGRRWNCTTVHDSLAIFGPVLDKATRESAFVHAIASAGVAFAVTRSCAEGTAAICGCSSRHQGSPGKGWKWGGCSEDIEFGGMVSREFADARENRPDARSAMNRHNNEAGRQAIASHMHLKCKCHGLSGSCEVKTCWWSQPDFRAIGDFLKDKYDSASEMVVEKHRESRGWVETLRPRYTYFKVPTERDLVYYEASPNFCEPNPETGSFGTRDRTCNVSSHGIDGCDLLCCGRGHNARAERRREKCRCVFHWCCYVSCQECTRVYDVHTCK
B3: Dkk1: recombinant Dkk1, inhibitor of Wnt signaling (protein, UniProt O94907 32-266, looked up)
Dickkopf-related protein 1: TLNSVLNSNAIKNLPPPLGGAAGHPGSAVSAAPGILYPGGNKYQTIDNYQPYPCAEDEECGTDEYCASPTRGGDAGVQICLACRKRRKRCMRHAMCCPGNYCKNGICVSSDQNHFRGEIEETITESFGNDHSTLDGYSRRTTLSSKMYHTKGQEGSVCLRSSDCASGLCCARHFWSKICKPVLKEGQVCTKHRRKGSHGLEIFQRCYCGEGLSCRIQKDHHQASNSSRLHTCQRH
B4: BMP4: recombinant BMP4, added to differentiating human ESC (protein, UniProt P12644 293-408, looked up)
Bone morphogenetic protein 4: SPKHHSQRARKKNKNCRRHSLYVDFSDVGWNDWIVAPPGYQAFYCHGDCPFPLADHLNSTNHAIVQTLVNSVNSSIPKACCVPTELSAISMLYLDEYDKVVLKNYQEMVVEGCGCR
B5: Noggin: recombinant Noggin, inhibitor of BMP signaling (protein, UniProt Q13253 28-232, looked up)
Noggin: QHYLHIRPAPSDNLPLVDLIEHPDPIFDPKEKDLNETLLRSLLGGHYDPGFMATSPPEDRPGGGGGAAGGAEDLAELDQLLRQRPSGAMPSEIKGLEFSEGLAQGKKQRLSKKLRRKLQMWLWSQTFCPVLYAWNDLGSRFWPRYVKVGSCFSKRSCSVPEGMVCKPSKSVHLTVLRWRCQRRGGQRCGWIPIQYPIISECKCSC

Columns and labels:
human ESC = test: Eye field specification from differentiating human ESC: Pax6 and Rx gene expression (RT-PCR/qPCR) and neuroepithelial colony formation; type: cell-based; conditions: for appearance of neuroepithelial colonies / expression of Pax6 and Rx: Wnt3A and BMP4 added together (100 ng/ml) over the first 10 days of differentiation; for appearance of neuroepithelial colonies: morphology at day 10; for expression of Pax6 and Rx: qPCR
Procedure: (1) Making human ESC aggregates: Human ESC were grown on irradiated MEFs to approximately 80% confluence in a 6-well plate. Upon reaching 80% confluence, the human ESC medium was aspirated off and 1 ml of dispase (1 mg/ml, Gibco #17105-041) solution was added to each well. After 5 minutes, the cells were examined for curling of human ESC colony edges, indicative of the colonies beginning to lift off of the plate. If noticeable curling was evident, the dispase solution was aspirated off of the plate and replaced with 1 ml of DMEM/F12 per well. The human ESC colonies were mechanically lifted from the plate by pipetting a few times with a 10 ml pipette. When all colonies were detached, the cells were transferred to a 15 ml conical tube and allowed to settle by gravity. After the aggregates had settled (˜5 minutes), the supernatant was aspirated and replaced with 10 ml of Embryoid Body (EB) medium, which contained DMEM/F12 (1:1) (Gibco #11330-065), 20% knockout serum replacement (Gibco #10828-028), 0.1 mM β-mercaptoethanol, 1 mM L-glutamine (Gibco #25030-081) and 1% MEM nonessential amino acids (Gibco #11140-050). The pellet of cells was resuspended by repeated pipetting 2-3 times with a 10 ml pipette, just enough to separate the individual aggregates while minimizing their dissociation. Aggregates were approximately 400 μm in diameter. These aggregates were then transferred to a T25 flask and placed in the incubator. The next day, the aggregates formed floating, sphere-like structures. (If significant attachment of human ESC and/or residual MEF cells was observed, the unattached aggregates were transferred to a new flask.) These cells were fed with fresh EB medium every day for the first 4 days.
(2) Differentiating to anterior neuroepithelial fate: The aggregates were then collected by settling in a 15 ml conical tube and washed once with 10 ml of DMEM/F12. Upon resettlement of the aggregates, the supernatant was removed and the aggregates were re-suspended in 10 ml of Neural Induction Medium (NIM) and transferred to a new T25 flask. NIM included DMEM/F12 (1:1) (Gibco #11330-065), 1% N2 supplement (Gibco #17502-048), 1% MEM nonessential amino acids (Gibco #11140-050), and 2 μg/ml heparin (Sigma #H-3149). Two days later, a 6-well plate was coated with laminin (20 μg/ml diluted in DMEM) and the coated plate was left in the incubator overnight. By this time, aggregates had become brighter and acquired clearly defined edges. The next day, approximately 50 aggregates were plated in each well of a 6 well plate. An additional 2 ml of fresh NIM was added to each well. The cells were then placed in the incubator, making sure the cells were distributed evenly in the plate by gently shaking the plate back and forth as well as side-to-side a few times. Within the first couple of days (by a total of 9 days), most aggregates attached to the laminin-coated surface. […]
RT-PCR experiments were done as follows to check gene expression: Total RNA was isolated from cell cultures from various stages of differentiation using the RNAeasy® kit (Qiagen) and treated with DNAse I. Reverse transcription was performed with the Superscript III RT-PCR kit (Invitrogen). […] For quantitative RT-PCR (qPCR), reactions were performed with Sybr Green Supermix (Applied Biosystems) and the Opticon 2 DNA Engine and Opticon Monitor 2.02 software (MJ Research). […]

human ESC cultures = test: Mitf and Chx10 gene expression (qPCR) in human ESC cultures treated during optic vesicle and optic cup stages; type: cell-based; conditions: SU5402 added days 16-40, measured at day 40
Procedure: The columnar rosette cells found in the center of these colonies were denser than those cells in the periphery, so they were easily dislodged by this pipetting technique, leaving the non-rosette cells attached to the plate. We took care not to break up the lifted colonies during this step. Detached colonies were collected in a 15 ml conical tube and spun in a centrifuge at 600 rpm for 1 minute to effectively pellet the detached colonies while leaving most single cells in suspension in the culture medium. The supernatant was then aspirated from the tube and the clusters were re-suspended in 10 ml of Retinal Differentiation Medium (RDM) and transferred to a new T25 flask. RDM included DMEM/F12 (3:1) supplemented with 2% B27. […] Within 3-5 days after detachment of the cells (19th-21st day of the differentiation), neurospheres readily adopted one of two major appearances. […]
RT-PCR experiments were done as follows to check gene expression: Total RNA was isolated from cell cultures from various stages of differentiation using the RNAeasy® kit (Qiagen) and treated with DNAse I. Reverse transcription was performed with the Superscript III RT-PCR kit (Invitrogen). […] For quantitative RT-PCR (qPCR), reactions were performed with Sybr Green Supermix (Applied Biosystems) and the Opticon 2 DNA Engine and Opticon Monitor 2.02 software (MJ Research). […] Quantitative RT-PCR primers were run for 40 cycles.

[1] = system: hiPSC-derived vesicular neurospheres; test: RPE specification from hiPSC-derived vesicular neurospheres in the presence of Activin (bright field microscopy, qPCR); type: cell-based, human
Procedure: RT-PCR experiments were done as follows to check gene expression: Total RNA was isolated from cell cultures from various stages of differentiation using the RNAeasy® kit (Qiagen) and treated with DNAse I. Reverse transcription was performed with the Superscript III RT-PCR kit (Invitrogen). PCR was performed with GoTaq PCR master mix (Promega) and subsequent PCR products were run on 2% agarose gels. For quantitative RT-PCR (qPCR), reactions were performed with Sybr Green Supermix (Applied Biosystems) and the Opticon 2 DNA Engine and Opticon Monitor 2.02 software (MJ Research). All primer sets listed were run for 30 cycles at an annealing temperature of 60° C. unless otherwise noted. Quantitative RT-PCR primers were run for 40 cycles.
Activin signaling has previously been implicated in this cell fate determination and as such, we sought to determine if Activin could influence these cells to adopt an RPE fate. […] Based on this feature, these aggregates could be manually isolated to generate highly enriched populations of RPE. When plated onto a laminin-coated substrate and in the presence of the mitogens FGF2 and EGF, these cells were capable of proliferation and outgrowth from the aggregate (FIG. 18D). […] Further maturation of these treated cells confirms that Activin signaling plays a role in the acquisition of an RPE fate at the expense of the neural retina, as Activin-treated cultures expressed RPE-specific genes such as RPE65 at higher levels than the untreated cells, whereas untreated cells expressed higher levels of genes associated with the neural retina including Brn3A (FIG. 18E-F).

hiPSCs = test: Neural/retinal specification of hiPSCs after addition of BMP and Wnt inhibitors (immunocytochemistry, FACS); type: cell-based, human; conditions: for expression of Pax6: recombinant Dkk1 and Noggin added together from 2-4 days of differentiation, immunocytochemistry; for expression of Chx10: treatment with Dkk1 and Noggin together, after 20 days of differentiation, FACS
Procedure: Immunocytochemistry was done as follows to check protein expression: human ESC aggregates or neurospheres were plated onto poly-ornithine- and laminin-coated coverslips overnight to allow for attachment, and then fixed with 4% paraformaldehyde. Cells were then permeabilized in 0.2% Triton X-100 for 10 minutes. For Mitf immunocytochemistry, cells were incubated in ice-cold 90% methanol for 10 minutes as an additional permeabilization step. Labeled cells were visualized with either Alexafluor 488- or Cy3-conjugated secondary antibodies, and nuclei were counterstained with either Hoechst or To-Pro-3 nuclear dyes. Images were obtained from a Nikon TE600 fluorescent microscope equipped with a SPOT camera and software or from z-stacks of cell clusters obtained on a Nikon Cl Laser Scanning Confocal microscope.
FACS analysis was done as follows to quantify the percentage of cells acquiring expression of Pax6 and Rx: Cells were dissociated with either trypsin or Accutase® (Chem icon), washed with a fluorescence-activated cell sorting (FACS) buffer (PBS, 0.1% sodium azide, and 2% donkey serum), and fixed with 0.1% paraformaldehyde for 10 minutes. Cells were then permeabilized with ice-cold 90% methanol for 20 minutes and incubated overnight in primary antibodies at a concentration of 1 μg of antibody per 1 million cells in FACS buffer. Antibody information is found in Table 2. Immunostaining was then completed with either donkey-anti-mouse or donkey-anti-rabbit Alexa 488 secondary antibodies for 2 hours, after which cells were washed with FACS buffer, and then sorted with a Becton Dickinson FACSCaliber. Data retrieved from the sorting was analyzed with CellQuest Pro software (Becton Dickinson).
To test this hypothesis, inhibitors of BMP signaling (Noggin or Dorsomorphin) and Wnt signaling (Dkk-1 or XAV-939) were added to cultures from days 2 to 4 of differentiation, a timeframe that was shown in Example 1 to be prior to the onset of neural specification based on Pax6 and Rax expression. […] This was further confirmed through immunocytochemistry, where cells treated with BMP and Wnt inhibitors were more likely to express the neural transcription factors Pax6 and Sox1 as well as eye field transcription factors Lhx2 and Six6.

Row | Molecule | appearance of neuroepithelial colonies (human ESC) | expression of Pax6 and Rx (human ESC) | expression of Pax6 (hiPSCs) | expression of Chx10 (hiPSCs) | also measured
1 | Cc1c[nH]c(/C=C2\C(=O)Nc3ccccc32)c1CCC(=O)O [SU5402] | – | – | – | – | Pax6 and Rx expression (human ESC; 10 μM SU5402, day 10 of differentiation, RT-PCR): complete loss; increase in Mitf gene expression (human ESC cultures): 11.8 fold; reduction of Chx10 expression (human ESC cultures): 15.9 fold
2 | B1 | – | – | – | – | development of pigmented, RPE-like phenotype ([1]; Activin added upon isolation of vesicular neurospheres until a total of 40 days of differentiation): a subset of the neurospheres was capable of developing a pigmented phenotype; expression of neural retinal-associated genes ([1]; Activin-A treated versus untreated vesicular spheres, qPCR): lower levels; expression of RPE-specific genes such as RPE65 ([1]; Activin-treated versus untreated cultures, qPCR): higher levels
3 | B2 | abolished | abolished | – | – | –
4 | B3 | – | – | restored | increased | –
5 | B4 | abolished | abolished | – | – | –
6 | B5 | – | – | restored | increased | –
